B1: 4.14 variant (peptide)
peptide: SLVKHHMYI
modifications: not checked
B2: 8.121mod (peptide)
peptide: WLFKLVPV
modifications: not checked
B3: 8.65nat (peptide)
peptide: ATLEEMMTA
modifications: not checked
B4: 8.42nat (peptide)
peptide: YLAWVPAHK
modifications: not checked
B5: 8.130nat (peptide)
peptide: SGGDPEIV
modifications: not checked
B6: 8.47nat (peptide)
peptide: RLAFHHMAR
modifications: not checked
B7: 8.56nat (peptide)
peptide: TLQEQIGWM
modifications: not checked
B8: 8.16nat (peptide)
peptide: ILVESPAVL
modifications: not checked
B9: 8.21nat (peptide)
peptide: FLWMGYELH
modifications: not checked
B10: 8.64nat (peptide)
peptide: ALGPAATLE
modifications: not checked
B11: 8.54nat (peptide)
peptide: RTLNAWVKV
modifications: not checked
B12: 8.45natC (peptide)
peptide: LCFGWCFKL
modifications: not checked
B13: 8.3nat (peptide)
peptide: ALVEMGHHA
modifications: not checked
B14: 8.123natG (peptide)
peptide: TGNPPIPV
modifications: not checked
B15: 8.15natM (4.40) (peptide)
peptide: GMGSPQILV
modifications: not checked
B16: 4.14 (peptide)
peptide: SLVKHHMYV
modifications: not checked
B17: 8.33nat (peptide)
peptide: LKTAVQMAV
modifications: not checked
B18: 8.116nat (peptide)
peptide: ALGIIQAQ
modifications: not checked
B19: 8.11natM (peptide)
peptide: GLADQLIHM
modifications: not checked
B20: 8.88nat (peptide)
peptide: AIEAQQHLL
modifications: not checked
B21: 8.1nat (peptide)
peptide: VVAAIIAIV
modifications: not checked
B22: 8.75natV (peptide)
peptide: NIWATHACV
modifications: not checked
B23: 8.10natT (peptide)
peptide: KTKPPLPSV
modifications: not checked
B24: 8.49nat (peptide)
peptide: NTVATLYCV
modifications: not checked
B25: 8.93nat (peptide)
peptide: YIKIFIMIV
modifications: not checked
B26: 8.12nat (peptide)
peptide: ALAALITPK
modifications: not checked
B27: 8.135nat (peptide)
peptide: FLGAAGST
modifications: not checked
B28: 8.121nat (peptide)
peptide: WCFKLVPV
modifications: not checked
B29: 8.115nat (peptide)
peptide: LNFPISPI
modifications: not checked
B30: 8.14nat (peptide)
peptide: LQLPPIERL
modifications: not checked

The binders below were run against HLA-A2 MHC-I (HLA-A*0204, affinity purified from the EBV transformed cell line RML) (human).
For B1, the Kd was 123 nM.
B2 showed a Kd of 183 nM.
B3 was tested, and the Kd was 77 nM.
For B4, the Kd was 200 nM.
Work on B5 yielded a Kd of 950 nM.
Binder B6 has a Kd of 670 nM.
With B7 the Kd was 245 nM.
Work on B8 yielded a Kd of 13 nM.
Work on B9 yielded a Kd of 445 nM.
B10 gave a Kd of 830 nM.
In the case of B11, the Kd is reported as 170 nM.
In the case of B12, the Kd is reported as 580 nM.
For B13, the Kd was 160 nM.
B14 was tested, and the Kd was 700 nM.
With B15 the Kd was 120 nM.
B16 showed a Kd of 21 nM.
For B17, the Kd was 1330 nM.
With B18 the Kd was 97 nM.
Work on B19 yielded a Kd of 135 nM.
B20 was tested, and the Kd was 850 nM.
In the case of B21, the Kd is reported as 260 nM.
With B22 the Kd was 57 nM.
In the case of B23, the Kd is reported as 39 nM.
Work on B24 yielded a Kd of 170 nM.
B25 showed a Kd of 24 nM.
B26 gave a Kd of 62 nM.
With B27 the Kd was 870 nM.
B28 was tested, and the Kd was 200 nM.
Binder B29 has a Kd of 29 nM.
Binder B30 has a Kd of 7.3 nM.

— patent US20040072162A1, “Hiv peptides and nucleic acids encoding them for diagnosis and control of hiv infection” (priority 2000, published 2004)
